Measured values reported in patent US20170313750A1 (Novo Nordisk, published 2017).
Numbering of substitutions follows the chain as printed. Numbered stars: 1 amine (or outer) side, 2 acyl side, 3 side chain; on linkers, the order of the positions; unused ones are H or OH. Side chains are listed from the residue outwards. * marks the point of attachment. Hexadecanoyl(16-SO3H) = O=C(CCCCCCCCCCCCCCCS(=O)(=O)O)*; C18 diacid = O=C(O)CCCCCCCCCCCCCCCCC(=O)*; γGlu = O=C(O)[C@H](CCC(=O)[*:2])N[*:1]; Isovaleryl = CC(C)CC(=O)*; AEEA = NCCOCCOCC(=O)O

B1: N{alpha-4}-(3-Methylbutanoyl)-N{Epsilon-10}-[(4S)-4-carboxy-4-[[2-[2-[2-[[(4S)-4-carboxy-4-(16-sulfohexadecanoylamino)butanoyl]amino]ethoxy]-ethoxy]acetyl]amino … (peptide)
peptide: Isovaleryl-RPEAPPK([γGlu-AEEA-γGlu-Hexadecanoyl(16-SO3H)])DASPEELQRYYASLRHYYNWLTRQRY-NH2
SMILES: CC(C)CC(=O)N[C@@H](CCCNC(=N)N)C(=O)N1CCC[C@H]1C(=O)N[C@@H](CCC(=O)O)C(=O)N[C@@H](C)C(=O)N1CCC[C@H]1C(=O)N1CCC[C@H]1C(=O)N[C@@H](CCCCNC(=O)CC[C@H](NC(=O)COCCOCCNC(=O)CC[C@H](NC(=O)CCCCCCCCCCCCCCCS(=O)(=O)O)C(=O)O)C(=O)O)C(=O)N[C@@H](CC(=O)O)C(=O)N[C@@H](C)C(=O)N[C@@H](CO)C(=O)N1CCC[C@H]1C(=O)N[C@@H](CCC(=O)O)C(=O)N[C@@H](CCC(=O)O)C(=O)N[C@@H](CC(C)C)C(=O)N[C@@H](CCC(N)=O)C(=O)N[C@@H](CCCNC(=N)N)C(=O)N[C@@H](Cc1ccc(O)cc1)C(=O)N[C@@H](Cc1ccc(O)cc1)C(=O)N[C@@H](C)C(=O)N[C@@H](CO)C(=O)N[C@@H](CC(C)C)C(=O)N[C@@H](CCCNC(=N)N)C(=O)N[C@@H](Cc1c[nH]cn1)C(=O)N[C@@H](Cc1ccc(O)cc1)C(=O)N[C@@H](Cc1ccc(O)cc1)C(=O)N[C@@H](CC(N)=O)C(=O)N[C@@H](Cc1c[nH]c2ccccc12)C(=O)N[C@@H](CC(C)C)C(=O)N[C@H](C(=O)N[C@@H](CCCNC(=N)N)C(=O)N[C@@H](CCC(N)=O)C(=O)N[C@@H](CCCNC(=N)N)C(=O)N[C@@H](Cc1ccc(O)cc1)C(N)=O)[C@@H](C)O
notes: also called Compound 69; 69
B2: N{alpha-4}-(3-Methylbutanoyl)-N{Epsilon-10}-[(4S)-4-carboxy-4-[[2-[2-[2-[[(4S)-4-carboxy-4-(17-carboxyheptadecanoylamino)butanoyl]amino]ethoxy]ethoxy]-acetyl]am … (peptide)
peptide: Isovaleryl-RPEAPGK([γGlu-AEEA-γGlu-C18 diacid])DASPEELQRYYAELRHYYNWLTRQRY-NH2
SMILES: CC(C)CC(=O)N[C@@H](CCCNC(=N)N)C(=O)N1CCC[C@H]1C(=O)N[C@@H](CCC(=O)O)C(=O)N[C@@H](C)C(=O)N1CCC[C@H]1C(=O)NCC(=O)N[C@@H](CCCCNC(=O)CC[C@H](NC(=O)COCCOCCNC(=O)CC[C@H](NC(=O)CCCCCCCCCCCCCCCCC(=O)O)C(=O)O)C(=O)O)C(=O)N[C@@H](CC(=O)O)C(=O)N[C@@H](C)C(=O)N[C@@H](CO)C(=O)N1CCC[C@H]1C(=O)N[C@@H](CCC(=O)O)C(=O)N[C@@H](CCC(=O)O)C(=O)N[C@@H](CC(C)C)C(=O)N[C@@H](CCC(N)=O)C(=O)N[C@@H](CCCNC(=N)N)C(=O)N[C@@H](Cc1ccc(O)cc1)C(=O)N[C@@H](Cc1ccc(O)cc1)C(=O)N[C@@H](C)C(=O)N[C@@H](CCC(=O)O)C(=O)N[C@@H](CC(C)C)C(=O)N[C@@H](CCCNC(=N)N)C(=O)N[C@@H](Cc1c[nH]cn1)C(=O)N[C@@H](Cc1ccc(O)cc1)C(=O)N[C@@H](Cc1ccc(O)cc1)C(=O)N[C@@H](CC(N)=O)C(=O)N[C@@H](Cc1c[nH]c2ccccc12)C(=O)N[C@@H](CC(C)C)C(=O)N[C@H](C(=O)N[C@@H](CCCNC(=N)N)C(=O)N[C@@H](CCC(N)=O)C(=O)N[C@@H](CCCNC(=N)N)C(=O)N[C@@H](Cc1ccc(O)cc1)C(N)=O)[C@@H](C)O
notes: also called Compound 53; 53
B3: N{alpha-4}-(3-Methylbutanoyl)-N{Epsilon-7}-[(4S)-4-carboxy-4-(17-carboxy-heptadecanoylamino)butanoyl]-[Arg4,Lys7,Thr9,Gln18,Val22,Tyr28,Trp30,Leu31]hPYY(4-36) (peptide)
peptide: RPEKPTEDASPEELQRYYVSLRHYYNWLTRQRY
HELM: PEPTIDE1{[CC(C)CC(=O)[*:2]].R.P.E.K.P.T.E.D.A.S.P.E.E.L.Q.R.Y.Y.V.S.L.R.H.Y.Y.N.W.L.T.R.Q.R.Y.[am]}|PEPTIDE2{[O=C(O)CCCCCCCCCCCCCCCCC(=O)[*:2]].[gGlu]}$PEPTIDE1,PEPTIDE2,5:R3-2:R2$$$V2.0
SMILES: CC(C)CC(=O)N[C@@H](CCCNC(=N)N)C(=O)N1CCC[C@H]1C(=O)N[C@@H](CCC(=O)O)C(=O)N[C@@H](CCCCNC(=O)CC[C@H](NC(=O)CCCCCCCCCCCCCCCCC(=O)O)C(=O)O)C(=O)N1CCC[C@H]1C(=O)N[C@H](C(=O)N[C@@H](CCC(=O)O)C(=O)N[C@@H](CC(=O)O)C(=O)N[C@@H](C)C(=O)N[C@@H](CO)C(=O)N1CCC[C@H]1C(=O)N[C@@H](CCC(=O)O)C(=O)N[C@@H](CCC(=O)O)C(=O)N[C@@H](CC(C)C)C(=O)N[C@@H](CCC(N)=O)C(=O)N[C@@H](CCCNC(=N)N)C(=O)N[C@@H](Cc1ccc(O)cc1)C(=O)N[C@@H](Cc1ccc(O)cc1)C(=O)N[C@H](C(=O)N[C@@H](CO)C(=O)N[C@@H](CC(C)C)C(=O)N[C@@H](CCCNC(=N)N)C(=O)N[C@@H](Cc1c[nH]cn1)C(=O)N[C@@H](Cc1ccc(O)cc1)C(=O)N[C@@H](Cc1ccc(O)cc1)C(=O)N[C@@H](CC(N)=O)C(=O)N[C@@H](Cc1c[nH]c2ccccc12)C(=O)N[C@@H](CC(C)C)C(=O)N[C@H](C(=O)N[C@@H](CCCNC(=N)N)C(=O)N[C@@H](CCC(N)=O)C(=O)N[C@@H](CCCNC(=N)N)C(=O)N[C@@H](Cc1ccc(O)cc1)C(N)=O)[C@@H](C)O)C(C)C)[C@@H](C)O
notes: also called Compound 44; 44
B4: N{alpha-4}-(3-Methylbutanoyl)-N{Epsilon-7}-[2-[2-[2-[[(4S)-4-carboxy-4-(13-carboxytridecanoylamino)butanoyl]amino]ethoxy]ethoxy]acetyl]-[Arg4,Lys7,Pro9,Gln18,Ty … (peptide)
peptide: B3 peptide with T6P, V19A
modifications: N-terminal alpha-amino (position 4): 3-methylbutanoyl; Lys7 (hPYY(1-36) numbering) epsilon-amino: [2-[2-[2-[[(4S)-4-carboxy-4-(13-carboxytridecanoylamino)butanoyl]amino]ethoxy]ethoxy]acetyl]; C-terminal amide
notes: also called Compound 71; 71
B5: N{alpha-4}-(3-Methylbutanoyl)-N{Epsilon-7}-[(4S)-4-carboxy-4-[[(4S)-4-carboxy-4-(19-carboxynonadecanoylamino)butanoyl]amino]butanoyl]-[Arg4,Lys7,Pro9,Gln18, … (peptide)
peptide: B3 peptide with T6P, V19A
modifications: N-terminal alpha-amino (position 4): 3-methylbutanoyl; Lys7 (hPYY(1-36) numbering) epsilon-amino: [(4S)-4-carboxy-4-[[(4S)-4-carboxy-4-(19-carboxynonadecanoylamino)butanoyl]amino]butanoyl]; C-terminal amide
notes: also called Compound 12; 12
B6: N{alpha-4}-(3-Methylbutanoyl)-N{Epsilon-10}-[(4S)-4-carboxy-4-[[2-[2-[2-[[(4S)-4-carboxy-4-(17-carboxyheptadecanoylamino)butanoyl]amino]ethoxy]ethoxy]-acetyl]am … (peptide)
peptide: Isovaleryl-RPEAPGK([γGlu-AEEA-γGlu-C18 diacid])DASPEELQRYYESLRHYYNWLTRQRY-NH2
SMILES: CC(C)CC(=O)N[C@@H](CCCNC(=N)N)C(=O)N1CCC[C@H]1C(=O)N[C@@H](CCC(=O)O)C(=O)N[C@@H](C)C(=O)N1CCC[C@H]1C(=O)NCC(=O)N[C@@H](CCCCNC(=O)CC[C@H](NC(=O)COCCOCCNC(=O)CC[C@H](NC(=O)CCCCCCCCCCCCCCCCC(=O)O)C(=O)O)C(=O)O)C(=O)N[C@@H](CC(=O)O)C(=O)N[C@@H](C)C(=O)N[C@@H](CO)C(=O)N1CCC[C@H]1C(=O)N[C@@H](CCC(=O)O)C(=O)N[C@@H](CCC(=O)O)C(=O)N[C@@H](CC(C)C)C(=O)N[C@@H](CCC(N)=O)C(=O)N[C@@H](CCCNC(=N)N)C(=O)N[C@@H](Cc1ccc(O)cc1)C(=O)N[C@@H](Cc1ccc(O)cc1)C(=O)N[C@@H](CCC(=O)O)C(=O)N[C@@H](CO)C(=O)N[C@@H](CC(C)C)C(=O)N[C@@H](CCCNC(=N)N)C(=O)N[C@@H](Cc1c[nH]cn1)C(=O)N[C@@H](Cc1ccc(O)cc1)C(=O)N[C@@H](Cc1ccc(O)cc1)C(=O)N[C@@H](CC(N)=O)C(=O)N[C@@H](Cc1c[nH]c2ccccc12)C(=O)N[C@@H](CC(C)C)C(=O)N[C@H](C(=O)N[C@@H](CCCNC(=N)N)C(=O)N[C@@H](CCC(N)=O)C(=O)N[C@@H](CCCNC(=N)N)C(=O)N[C@@H](Cc1ccc(O)cc1)C(N)=O)[C@@H](C)O
notes: also called Compound 50; 50

What follows are binders tested against T1, human Y4 receptor (P50391, NPY4R_HUMAN, Uniprot) (human, UniProt P50391 1-375) (assay: SPA vs [125I]-PP).
T1 construct: whole, on cells; Assayed as membrane preparations of the expressing cells
T1 sequence (P50391 whole entry, one chain of several): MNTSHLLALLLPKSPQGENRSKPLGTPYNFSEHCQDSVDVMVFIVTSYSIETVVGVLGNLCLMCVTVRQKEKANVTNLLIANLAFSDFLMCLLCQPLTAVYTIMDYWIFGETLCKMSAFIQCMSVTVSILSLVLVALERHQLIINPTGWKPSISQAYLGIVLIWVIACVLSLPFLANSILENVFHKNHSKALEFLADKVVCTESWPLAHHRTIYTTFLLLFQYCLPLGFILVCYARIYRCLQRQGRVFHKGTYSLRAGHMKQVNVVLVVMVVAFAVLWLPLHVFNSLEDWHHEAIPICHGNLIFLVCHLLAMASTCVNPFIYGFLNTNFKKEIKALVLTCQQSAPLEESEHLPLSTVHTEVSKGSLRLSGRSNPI
Description: (§1) Human Y receptor SPA binding assay were performed in white 96-well plates in a total volume of 200 μl per well.
(§2) Plates were sealed and incubated at +25° C. for 2 hours in a plate shaker set at 400 rpm and thereafter centrifuged at 1500 rpm for 10 minutes prior to reading of luminescence on a microplate scintillation and luminescence counter.

Row | Binder | Ki
1 | B1 | 5690 nM
2 | Isovaleryl-RPEK([γGlu-C18 diacid])PTEDASPEELQRYYQSLRHYYNWLTRQRY-NH2 (also called Compound 43) | 6400 nM
3 | B2 | 9290 nM
4 | B3 | 6670 nM
5 | Isovaleryl-RPEAPGK([AEEA-AEEA-γGlu-C18 diacid])DASPEELQRYYAELRHYYNWLTRQRY-NH2 (also called Compound 52; 52) | 5690 nM

What follows are binders tested against T2, human Y2 receptor (P49146, NPY2R_HUMAN, Uniprot) (human, UniProt P49146 1-381) (assay: cell-based or functional assay).
T2 sequence (looked up): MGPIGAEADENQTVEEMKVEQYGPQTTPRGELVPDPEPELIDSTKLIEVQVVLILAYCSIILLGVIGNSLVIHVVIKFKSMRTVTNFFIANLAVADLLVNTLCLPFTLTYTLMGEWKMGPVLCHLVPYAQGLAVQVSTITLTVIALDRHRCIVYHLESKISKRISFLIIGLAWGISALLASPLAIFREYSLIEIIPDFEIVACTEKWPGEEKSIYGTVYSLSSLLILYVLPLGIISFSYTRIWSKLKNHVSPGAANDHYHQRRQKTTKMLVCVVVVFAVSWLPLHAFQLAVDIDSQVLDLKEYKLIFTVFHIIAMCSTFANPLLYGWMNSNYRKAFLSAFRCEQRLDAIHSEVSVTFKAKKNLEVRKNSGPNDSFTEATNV

Row | Binder | Y2 EC50, Actone functional potency assay
6 | B4 | 0.5 nM
7 | Isovaleryl-RPEK([γGlu-C18 diacid])PTEDASPEELQRYYQSLRHYYNWLTRQRY-NH2 (also called Compound 43) | 0.77 nM
8 | B5 | 4.35 nM
9 | B2 | 0.77 nM
10 | B3 | 1.35 nM

Each binder was assayed against T2, human Y2 receptor (P49146, NPY2R_HUMAN, …) (assay: SPA vs [125I]-PYY(1-36)).
Description: as §1, §2

Row | Binder | Ki
11 | B4 | 0.51 nM
12 | B1 | 0.94 nM
13 | B6 | 3.3 nM
14 | B5 | 1.1 nM
15 | B2 | 1.15 nM
16 | B3 | 0.33 nM
17 | Isovaleryl-RPEAPGK([AEEA-AEEA-γGlu-C18 diacid])DASPEELQRYYAELRHYYNWLTRQRY-NH2 (also called Compound 52; 52) | 0.66 nM

The binders below were run against T3, human Y5 receptor (Q15761, NPY5R_HUMAN, Uniprot) (human, UniProt Q15761 1-445) (assay: SPA vs [125I]-PYY(1-36)).
T3 construct: whole, on cells; Assayed as membrane preparations of the expressing cells
T3 sequence (looked up): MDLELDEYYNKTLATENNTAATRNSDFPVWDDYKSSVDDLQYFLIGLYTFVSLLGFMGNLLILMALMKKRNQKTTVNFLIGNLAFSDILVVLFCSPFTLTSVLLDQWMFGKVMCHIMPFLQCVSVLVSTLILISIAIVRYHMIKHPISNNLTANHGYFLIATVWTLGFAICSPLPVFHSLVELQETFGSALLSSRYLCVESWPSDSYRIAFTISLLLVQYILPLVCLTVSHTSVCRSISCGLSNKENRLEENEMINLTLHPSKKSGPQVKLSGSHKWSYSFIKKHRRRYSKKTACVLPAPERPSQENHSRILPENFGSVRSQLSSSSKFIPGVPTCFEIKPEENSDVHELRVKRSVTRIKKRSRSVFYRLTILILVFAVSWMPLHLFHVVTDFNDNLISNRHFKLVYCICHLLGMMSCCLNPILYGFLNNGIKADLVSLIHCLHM
Description: as §1, §2

Row | Binder | Ki
18 | B1 | 146 nM
19 | Isovaleryl-RPEK([γGlu-C18 diacid])PTEDASPEELQRYYQSLRHYYNWLTRQRY-NH2 (also called Compound 43) | 509 nM
20 | B6 | 122 nM
21 | B2 | 452 nM
22 | Isovaleryl-RPEAPGK([γGlu-AEEA-γGlu-C18 diacid])DASPEELQRYYASLRHYYNWLTRQRY-NH2 (also called Compound 59; 59) | 279 nM
23 | B3 | 470 nM
24 | Isovaleryl-RPEAPGK([AEEA-AEEA-γGlu-C18 diacid])DASPEELQRYYAELRHYYNWLTRQRY-NH2 (also called Compound 52; 52) | 182 nM

Each binder was assayed against T1, human Y4 receptor (P50391, NPY4R_HUMAN, …) (assay: ratio of SPA values, Y2 as reference).
Description: as §1, §2

Row | Binder | Ratio of Y4/Y2 EC50 values
25 | B2 | 8080
26 | B3 | 20200
27 | Isovaleryl-RPEAPGK([AEEA-AEEA-γGlu-C18 diacid])DASPEELQRYYAELRHYYNWLTRQRY-NH2 (also called Compound 52; 52) | 8620

What follows are binders tested against T3, human Y5 receptor (Q15761, NPY5R_HUMAN, …) (assay: ratio of SPA values, Y2 as reference).
Description: as §1, §2

Row | Binder | Ratio of Y5/Y2 EC50 values
28 | B2 | 393
29 | B3 | 1420
30 | Isovaleryl-RPEAPGK([AEEA-AEEA-γGlu-C18 diacid])DASPEELQRYYAELRHYYNWLTRQRY-NH2 (also called Compound 52; 52) | 275
